Source: the DeepSol protein solubility set

assay: soluble on expression in E. coli; label from the status in PepcDB or PDB records

| Sequence | soluble on expression in E. coli |
| --- | --- |
| MLRKGVSFVGQAVQQTLKTQKNLRIQRFSATASQSSEEVNYEIRKDGKRLRGADYEEIVLTSIAGEDKTQIPKGAFDVLLKEYDDLQAESLDFKDKYQRSLAETENVRRRGIKQTDDAKVFAIQSFCKDLLEVSDILDIAVKSVKPEDLESGGKALKDLFEGVSMTRTVMAKTFAKHGLVTVDPTNEKFDPNLHEAVFQIPSANAKQPVGHIEVCTKIGYSLKERPIRPAQVGVVSK | not soluble |
| MAHHHHHHMNTSLSNNENENNFFIKSFFESLSNFIKNIKIEIKDTFELLNYPCVYQNSKKKFSVSENEDYKNSLTTNVISKIDKKNIENFRVYQKELHNILQNIKTFNEKYKLDVPLLSIMENLIILHLINEYKINNIVKKIQEHNIPMPELNSDLPDYLIPTLELEENQNESNLNVSISEINNLSINNNAVKHILENAQLKVDFSKLVKLNGENHLNSSSINPSSELNEKSDELTLYKKDDKIHNLTHDIKEEINNERNEDQYLNRSHNNEDEKHTLMTSKKEEKVNLIQNIGLSEETLKLLNLLPKKRKNDQN | not soluble |
| MGASKDAMDEEGNAAADLGLVARIRESFDSLTATEREAAQFILGHLTDVLVCNSVELSQLSGISQPTLSRLYRKLGYANAGEFRRDVRRVHRPGSPELSRHTQCDDLVADHLRRDEESLKRTFEGIDRAQLSSACQAMATAPHVAVVGYHSSYPVALHMREQLMRLRGNVDILPNPGQSIAEDLVDYAAGDVIVIIGVGRRLPFFSRLIDVMLERGLTVVVIGDISARNAVIGRNVAFFKVVLSSHVLTSFTAAFALIALMVDEVGKCLVDTEDEVHARIEGINDCFDALNELED | not soluble |
| SQKPCKENEGKPKCSVPKREEKRPYGEFERQQTEGNFRQRLLQSLEEFKEDIDYRHFKDEEMTREGDEMERCLEEIRGLRKKFRALHSNHRHSRDRPYPI | soluble |
| MPTAIDLFAGLGGWSNGARRAGVKVLWAANHWPVAVGWHSANHPDAIHVCQDLHQADWSKVPAHGIMLASPCCQGHSKARGKKSGNAQHDSSRSTAWAVVSAAEYHSPEVVLVENVEEFTDWALYPAWSQAMAALGYMIAPHVVDCADLGVPQHRVRLFLVCTRSKAPLNLQLHQRQHVPASSFIDFDSGKWSPIVKPSRAESTLTRVKNGRQRFGERFIMPYYRSGSGLTGSCIERPIGTITKLDRWALVRGNEMRMLSADEGLAGMSFDADTKRPASHRLTMHMAGTSTNPVG | not soluble |
| MDWEERENPKRLVKTFAFPNFREALDFANRVGALAERENHHPRLTVEWGRVTVEWWTHSAGGVTEKDREMARLTDALLQR | soluble |
| PGAPRRLIDAALAAGAQGLVIEAMGSGNVGTDIGVALGEALDAGIPVVISTRVPRGEVFGAYGGAGGGKTLASKGAVNSTYFRSGQARVLLAIAIASGVHPATLL | not soluble |
| MSENPLLERARRFLSALRHCQVLGLTVEAADEKGLTLRLPYSQAIIGNPESGVVHGGAITTLMDTTCGISTVCVLPDFEICPTLDLRIDYMHPAEPHKDVYGFAECYRVTPNVIFTRGFAYQDDPGQPIAHVVGAFMRMGLEHHHHHH | soluble |
| MAHHHHHHMPQCGTEKHVSAPPSYTGPFVAVVVDLDGTILDDNHRVSDVTKATLYEVASCGVHIIIATGRPREGVAAIEQELNSYFRCNSRVPGRATSLAEVKGFHLVASNGARIYNTTGELISAESIDNSVVRAIYERVTESNINANSEDSMLVSVHQTGAWWVNNVLPEEWLRRKYGTLPEVRQNLSDFPTDGVGKICLRSFNEGTLRTFQKELDTKYEHYITTVMTSDHCLDIMPKGVSKASALRMVGEILNFEPHRDAIAFGDSLNDRDMLESVAKGCIMKNGKNELKELLPHVEVVGCNEEDGVAHKLREVFLLS | not soluble |
| MIDVKSIILIVLDGLGDRPGEILGYRTPLQAAYHPNMNRMASLGMTGLMHPISPGIRSGSDTSHMSLLGYDPRVYYQGRGPFEALGLHMDMKPGDLAFRANFATNRDGKIIDRRAGRINAGNDQLASAISIDIGNYKFRVKSGVEHRAALVVSGPNLSDKISDSDPHSEGKPPEPIRPLDPSADSTAKIMNEYLKRIREILRDHPVNVEREKNGQIPGNELLIRSAGKVPDIPSFQEKNGITGACVVGSPWLKGLCRLLGMAVIDVPGAAGTINSNYTGKIKTAIDASKRYDFVLVNIKATDVAGHDGDYELKRRVIEDIDIAMEPLLGQSDRIVVAITGDHSTPCSVKDHSGDPVPIVFYTDGIYSDDVKLFDEVSAMKGALRITTQDVLNILMEMAGRAEKFGS | not soluble |
| MGSDKIHHHHHHSCTQDSDTFYPSSPEEEHPSVDESRMIPIQLSVDGVDQFYGGAVTRSGETVARLVQPLDSTYDTGYDVETTVESIPLENIVSTRANLGNVQFRVVAYRTDASSADHYAGTAVYKTNGSGVAAIVAKTATPVNSAGQWILGPGTYTFVCYSYGLNSAPAMLSGNWSATVSHNQDFMLCRKEEVVVAPDDRGEFTLGGISFTRQCALLQLAVTANDFTNNTVQQCAATVSNLNSNNITWNAGQTALSTGGTGGAVNFSWSSLNAATVNSNVYKVLPQSSRTLTIKLTTLRIGNIQYNNRVTVNASGRQFAAGGNYKITVKITGNGITVGGATWAKGNVYKSGSNFYFESSQSGYHSGTQGGSFFGWNTLSSTNNTYGGSSFSSDNDPCYQVAPRGTWCTPTANQLQNLGNSGYRSGYLDGKRGGYFGGNKVFLPAMGNRGKNNVNYWPETGYYRSSTGASGKRCYYLEFNQSYAVKNNYYWYWDGFPIRCVKR | not soluble |
| PVTETVDGQGQAWRHHNGFDFAVIKELKTAASQYGATAPYTLAIVESVADNWLTPTDWNTLVRAVLSGGDHLLWKSEFFENCRDTAKRNQQAGNGWDFDMLTGSGNYSSTDAQMQYDPGLFAQIQAAATKAWRKLPVKGD | soluble |
| MGSDKIHHHHHHIPNLEKSGSNFCMPFKGINVVKKCNMEYFLLNADFVNLEKTVFKKSQTLDNVCTGPENTFKTPDAGNYVVRYGERVLMTYKAGSNYRKCIGTYDVDDDLFTCVMPTDNNGFEGLEMGGFLYDPVTGEPHRDDGSVEVFCKIPHKF | not soluble |
| DYKLFITEGYEVGRVNGLAVIGESAGIVLPIIAEVTPSMSKSEGRVIATGRLQEIAREAVMNVSAIIKKYTGRDISNMDVHIQFVGTYEGVAGDSASISIATAVISAIEGIPVDQSVAMTGSLSVKGEVLPVGGVTQKIEAAIQAGLKKVIIPKDNIDDVLLDAEHEGKIEVIPVSRINEVLEHVLEDGKKKNRLMSKFKELELAAV | soluble |
| MEQIERIAQLYPVIMRVMGRIRSLVHDGMDLTYNQYKMLLTIYDKGSCPLNLLARELGIAMSSASEMVERLVNLGIVYRAVDEDNRRQVIIYTTDRGEELIRELRHGIIENYRQLFARLPEGDQERLATAFETIADVLGKLE | not soluble |
| METFDVVVIGAGAAGMMCAIEAGKRGRSVLVIDHAKAPGEKIRISGGGRCNFTNTGASIHNFLSANPKFALSALRRYRPRDFIALVERYGIAYHEKTLGQLFCDGSAKQIITMLLTEMKAAGVTLRLETSVESVAKAVSGFEVSLSSGKVACASLVVASGGKSIPKMGATGLGYDIAKQFGLNIIETRPALVPLTFEAGMLARLTPLSGVALDAVVGHGKTKFQEGMLFTHRGLSGPSILQISSYWREGDEIRVDMAPGVDALAALKTARTATPRQAVATVLATLLPKRVAQVIAEEEAPDKGNIADCSDKVLGRLASAVNAWTFKPVGSEGYRTAEVTLGGVDTEALDSRTLEAKAVPGLFFIGEVVDVTGWLGGYNFQWAWASGWSAGQSV | soluble |
| MDVTATPRPHSNTQRPTQAYYVPRKLLECGRGPQSKPTTIDKNEKPIQTSAQQKQKPRPLMDTVISAPPSSLKEKSPQSNRQTKSNKKSSPPPRKSPVMTSSYQVQYPNSPRDLHLVSSTPSSRSSSSMSSNNGIVSPTLTVSSPRIVKGGPQKYSMSRPNAFAPMIAQSDEKECICDRKNTHVVCKRCGYECVGRVQVTCGKHPLILALNDLRECPNPVCHSVQLLECDELDDQDVHDDGVEQLLAEPIEKIDLLS | not soluble |
| MLPKAFLSRMAELLGEEFPAFLKALTEGKRTYGLRVNTLKLPPEAFQRISPWPLRPIPWCQEGFYYPEEARPGPHPFFYAGLYYIQEPSAQAVGVLLDPKPGERVLDLAAAPGGKTTHLAARMGGKGLLLANEVDGKRVRGLLENVERWGAPLAVTQAPPRALAEAFGTYFHRVLLDAPCSGEGMFRKDREAARHWGPSAPKRMAEVQKALLAQASRLLGPGGVLVYSTCTFAPEENEGVVAHFLKAHPEFRLEDARLHPLFAPGVPEWGEGNPELLKTARLWPHRLEGEGHFLARFRKEGGAWSTPRLERPSPLSQEALRAFRGFLEEAGLTLEGPVLDRAGHLYLLPEGLPTLLGLKAPAPGLYLGKVQKGRFLPARALALAFGATLPWPEGLPRLALTPEDPRALAFATGEGVAWEGEDHPLALVVLKTAAGEFPLDFGKAKRGVLRPVGVGLRSHHHHHH | soluble |
| MNFIIEPGSLADIDELERLYDELNDHLSATINYPGWIKGIYPVRENAAAGVDDNSLFVARCDGRIAGSVILDHQPEKAYENIVWKIDADYSYIFVVRTFVVHPSFLQMGVGHALMDFSLELALKSEMKSIRLDVYEKNLPAISLYEKCGFEYIDTVDLGLGHYGLDWFKLYEKVI | not soluble |
| MGSDKIHHHHHHMHAIGFTDHLPIEDPASLRDVTISKPSAQGHDLLVQVQAVAVNPVDVSVRKTGHEHRMRPKILGWDATGIVTAVGEAVTLFQPGDHVFYAGSFRRPGCDSAYHLVDERLVGHAPATLTTAARAAMPLTSLTAYEALFEQLHIPFDPAKPNSEKCNQTILIINGAGGVGSIATQLAKLAGLTVISSASRPESIAWTQQHGADLVVNHHHDLVSEVHALGIKDVDYILGLSDLDSHWNEICTLIKPGGHIASITENRRPIDLKKLTKKRGTFAWEWMYSKSYYHTADMISQHDILETIADLLDRGLLQSTLSQTLRPINALNLRQAHQLIEQHHMIGKVVIEGWE | not soluble |
| MSTYEGRWKTVKVEIEDGIAFVILNRPERRNAMSPTLNREMIDVLETLEQDPAAGVLVLTGAGEAWTAGMDLKEYFREVDAGPEILQEKIRREASQWQWKLLRMYAKPTIAMVNGWCFGGGFAPLVACDLAICADEATFGLSEINWGIPPGNLVSKAMADTVGHRQSLYYIMTGKTFGGQKAAEMGLVNESVPLAQLREVTIELARNLLEKNPVVLRAAKHGFKRCRELTWEQNEDYLYAKLDQSRLLDTEGGREQGMKQFLDDKSIKPGLQAYKR | soluble |
| LNDPLDSGRFSRKQLDKKYKHAGDFGISDTKKNRETLTKFRDAIEEHLSDKDTVEKGTYRREKGSKVYFNPNTMNVVIIKSNGEFLSGWKINPDADNGRIYLETGEL | soluble |
| MNNENMLSDNSTQTSQINETIDQPIIYILDTNILLHEPFAFLSFKEHDVVVPMTVLEELDSIKDRRKDVSRDARVAIRALEDTLRDASPEQVLAGVKLPQNDDQHPSGSLAIINDYALEKTAHTLSFNENDNRIINAALHIQKKTPNKKIVLVTKDINMRLKAKGAGLAHVEDYRTDQLIDDIQFLTKGYHKFEGDFWQQIQSVDSETEGRNTTHYVSRETVPSTYINEYLLDDSGTFAGKVTGWDDDKLAILDLGRERLLAKNAWGIHPKNIYQGMAMDALLDPTIDLVILTGPAGSGKTLLALASALEQVIERGLYDKIIVTRSTPEIAESIGFLPGTEEEKMAPWLAAITDSLEVLHQQDESMHGSLNYIMDKANIQFKSVNFMRGRSIQNALVLLDECQNLTAAQLKTIITRCGEGTKLVCSGNLAQIDSNYLTAVTSGLTYIVERFKDFPGSATVNLNGVVRSRLASFAEENL | soluble |
| MGHHHHHHSHIAELYGAVLWGETVHLFMEAGEGGSVLEKLESCGPMREFEIIWVTKHVLKGLDFLHSKKVIHHDIKPSNIVFMSTKAVLVDFGLSVQMTEDVYFPKDLRGTEIYMSPEVILCRGHSTKADIYSLGATLIHMQTGTPPWVKRYPRSAYPSYLYIIHKQAPPLEDIADDCSPGMRELIEASLER | not soluble |
